Reference: US5597719, “Interaction of RAF-1 and 14-3-3 proteins” (Onyx Pharmaceuticals, Inc., dated 1997)

B1: human HS1 1054 (14-3-3β) fused with GAL4 activation domain (other)
chain: MTMDKSELVQKAKLAEQAERYDDMAAAMKAVTEQGHELSNEERNLLSVAYKNVVGARRSSWRVISSIEQKTERNEKKQQMGKEYREKIEAELQDICNDVLELLDKYLIPNATQPESKVFYLKMKGDYFRYLSEVASGDNKQTTVSNSQQAYQEAFEISKKEMQPTHPIRLGLALNFSVFYYEILNSPEKACSLAKTAFDEAIAELDTLNEESYKDSTLIMQLLRDNLTLWTSENQGDEGDAGEGEN
B2: human P1A2 (14-3-3ζ) fused with GAL4 activation domain (other)
chain: MDKNELVQKAKLAEQAERYDDMAACMKSVTEQGAELSNEERNLLSVAYKNVVGARRSSWRVVSSIEQKTEGAEKKQQMAREYREKIETELRDICNDVLSLLEKFLIPNASQAESKVFYLKMKGDYYRYLAEVAAGDDKKGIVDQSQQAYQEAFEISKKEMQPTHPIRLGLALNFSVFYYEILNSPEKACSLAKTAFDEAIAELDTLSEESYKDSTLIMQLLRDNLTLWTSDTQGDEAEAGEGGEN
B3: 14-3-3β (not fused to GAL4) (other)
chain: MTMDKSELVQKAKLAEQAERYDDMAAAMKAVTEQGHELSNEERNLLSVAYKNVVGARRSSWRVISSIEQKTERNEKKQQMGKEYREKIEAELQDICNDVLELLDKYLIPNATQPESKVFYLKMKGDYFRYLSEVASGDNKQTTVSNSQQAYQEAFEISKKEMQPTHPIRLGLALNFSVFYYEILNSPEKACSLAKTAFDEAIAELDTLNEESYKDSTLIMQLLRDNLTLWTSENQGDEGDAGEGEN
B4: 14-3-3ζ (not fused to GAL4) (other)
chain: MDKNELVQKAKLAEQAERYDDMAACMKSVTEQGAELSNEERNLLSVAYKNVVGARRSSWRVVSSIEQKTEGAEKKQQMAREYREKIETELRDICNDVLSLLEKFLIPNASQAESKVFYLKMKGDYYRYLAEVAAGDDKKGIVDQSQQAYQEAFEISKKEMQPTHPIRLGLALNFSVFYYEILNSPEKACSLAKTAFDEAIAELDTLSEESYKDSTLIMQLLRDNLTLWTSDTQGDEAEAGEGGEN

How the values were obtained:
[1] = target: GAL4 DNA-binding domain alone (Saccharomyces cerevisiae (strain ATCC …, UniProt P04386)); assay: yeast two-hybrid
Excerpt: However, interaction between 14-3-3β and the bcr gene product, which itself has endogenous kinase activity, was detected.
The Raf-1 coding sequence was isolated by PCR amplification of a human placental cDNA library purchased from Stratagene (San Diego, Calif.) as described by MacDonald et al. (1993) *Mol. Cell Biol.* 13: 16.15. For use in the two hybrid screen (Chien et al. (1991) *Proc. Natl. Acad. Sci. USA* 88: 9578), the Raf-1 gene was fused to sequence encoding the GAL4-DNA binding domain by digesting pGEM Raf-I with NcoI and SacI to liberate the Raf-1 coding sequence and subcloning into the pGBT8 plasmid (Hannon et al. (1993) *Genes & Dev.* 7: 2378) digested also with Nco I and Sac I. Yeast (*S. cerevisiae*) of strain YGH-1 (Hannon et al. (1993) op.cit.) were transformed with pGBT8 Raf1, and the resultant strain was transformed with a HeLa cell cDNA library encoding fusions with the GAL4 activation domain in the plasmid pGAD (Chien et al. (1991) *Proc. Natl. Acad. Sci.* (USA) 88: 9578). The YGH-1 strain contains two reported genes, HIS3 and lacZ, which allow selection of cDNAs encoding proteins capable of interacting with the gene of interest, in this case, Raf-1. The first selection was by the ability to grow on plates lacking histidine. Positive colonies were then tested for production of β-galactodidase using X-gal as substrate as described by Hannon et al. op.cit. […]

[2] = target: Ras-binding domain of Raf (aa51-aa131) (human); assay: ELISA
[3] = target: full-length Raf-1 (wildtype Raf) (human); assay: cell-based or functional assay

Binder | binding result [1] | binding result [2] | Raf activity in cells containing the 14-3-3 proteins [3]
B1 | no binding |  | 
B2 | no binding |  | 
B3 |  | no binding | 2 fold increase over background
B4 |  |  | 2 fold increase over background
